Here are results for 2 molecules from article PMC7336809, “AcnSP – A Novel Small Protein Regulator of Aconitase Activity in the Cyanobacterium Synechocystis sp. PCC 6803” (Frontiers in Microbiology, 2020).

The target of data set [1] is recombinant Synechocystis 6803 aconitase (AcnB), His-tagged (Synechocystis sp. PCC 6803) (UniProt P74582).
Substrate in data set [2]: O=C(O)/C=C(/CC(=O)O)C(=O)O
Put plainly: purified protein. Format: biochemical, Synechocystis sp. PCC 6803. Conditions: 10 mM DTT (reducing), no AcnSP, 50 mM Tris-malate pH 7.5, 30°C, 0.3 mM NADP+, 2 mM Na2EDTA, 10 mM MnCl2.

The term Km denotes the substrate concentration at which the rate is half of its maximum. The term Vmax denotes the top rate of the reaction or transport when substrate is in excess. Usually kcat stands for the maximal rate divided by the concentration of active sites.

Consider “synthetic AcnSP peptide (aconitase small protein)”, for which, in data set [1], the Kcat of aconitase with 2 nmol AcnSP added to 2 nmol AcnB, oxidizing conditions (−DTT); control without AcnSP 3.46 is 3.15 s^–1 and the Kcat of aconitase with 2 nmol AcnSP added to 2 nmol AcnB, reducing conditions (+10 mM DTT); control without AcnSP 14.92 stood at 13.8 s^–1.

B1: recombinant AcnB (aconitase B, Slr0665) (Synechocystis sp. PCC 6803 substr. Kazusa) (protein)
chain: MLQAYRRHVADRQKLGIPPLPLNAQQTTELCELLKNPPEAEKEELMMLLRDRVPPGVDEAAYVKAGFLTAIAKGEVTCPLISGQGAVDLLGTMIGGYNVQSLIELLKSKDTNIASAAATALSKTLLVFDAFNDVLHLSDTNGYAKQVIDAWAEGAWFINKPEVPERITVTVFKVPGETNTDDLSPAPHATTRPDIPLHALAMLEAKMPEGLGTIAELKQKGHPVAYVGDVVGTGSSRKSAINSVLWHIGTDIPFVPNKRAGGYILGGKIAPIFFNTAEDSGALPIECDVNQLNTGDVITIYPREGKITNKAGETITTFQLKPETILDEVRAGGRIPLLIGRALTDKTREALGLSPSPLFVRPTAPADTGKGFTLAQKMVGKACGVQGIRPGTSCEPIMTTVGSQDTTGPMTRDELKELACLGFNADLTLQTFCHTAAYPKPVDIKTHKDLPDFFSTRGGVALRPGDGIIHSWLNRMLLPDTVGTGGDSHTRFPLGISFPAGSGLVAFAAALGVMPLDMPESVLVKFTGELQPGVTLRDIVNAIPWVAMQQGKLTVGKGDKVNVFNGRIMEMEGLPDLKVEQAFELTDATAERSCSGSTIKLSEETVAEYLRSNVVLMKNMIARGYQDARTLLRRIAKMEEWLANPSLMSGDADAEYADVIEVNLDEIKEPIVAAPNDPDNVKLMSECAGDVIHEVFIGSCMTNIGHYRAAAKILEGAGTVKGRLWICPPTRMDEQQLREEGIYGIFAAAGARTEMPGCSLCMGNQARVEDGVTVFSTSTRNFNNRMGKGAQVYLGSAELAAVCALLGKIPTVEEYLAIVSEKVAPFEGELYRYLNFNEIDNFEDFGRVIPLDQMPKIEDILGMPVGAK
notes: full-length (868 aa), His-tagged from pET28a(+) (NdeI/SalI), E. coli BL21 (DE3), Ni-NTA; medium supplemented with Fe-citrate for iron-sulfur centers
Take B1: in data set [2], the Km came to 0.371 ± 0.020 mM, the Vmax stood at 9.04 µmol/min/mg and the kcat turned out to be 14.9 s⁻¹.
